The target of assay [1] is T1, 人的PD-1胞外区与人Fc融合蛋白(PD-1-ECD-hFc) (human, UniProt Q15116 25-170).
T1 construct: extracellular domain; Coated on ELISA plates; also called PD-1-hFc; not shown: human Fc
Description: competition ELISA, PD-1-ECD-hFc coated, competitor PD-L1-Biotin. (In an ELISA, binding on a coated surface is turned into a signal by an enzyme label.)

Assay [2] addresses T1, 人的PD-1胞外区与人Fc融合蛋白(PD-1-ECD-hFc). Description: ELISA, PD-1-ECD-hFc coated, goat anti-mouse IgG detection.
Assay [3] concerns the target T2, PD-1 on 293T-PD-1 cells (UniProt Q15116 25-288, limits assumed).
T2 construct: whole, on cells; the antibodies are anti-human PD-1
The assay can be described thus: FACS on 293T-PD-1 cells, PE goat anti-mouse detection.

Assay [4] concerns the target T2, PD-1 on 293T-PD-1 cells. Description: competition FACS on 293T-PD-1 cells, competitor PD-L1-biotin (row head prints EC50, title IC50).
In assay [5] the target is T3, 人的PD-1胞外区与小鼠Fc融合蛋白(PD-1-ECD-mFc) (human, UniProt Q15116 25-170).
T3 construct: extracellular domain; also called PD-1-mFc; not shown: mouse Fc
The assay can be described thus: ELISA on coated PD-1-mFc (antigen per legend of figure 6).

Assay [6] concerns the target T2, PD-1 on 293T-PD-1 cells. The assay can be described thus: FACS on 293T-PD-1 cells.
The target in assay [7] is T1, 人的PD-1胞外区与人Fc融合蛋白(PD-1-ECD-hFc). Description: competition ELISA, coated PD-1-hFc (per table title; figure 7 legend says PD-1-mFc), competitor PD-L1-Biotin.

By IC50 is commonly meant the concentration that gives 50% inhibition. A lower IC50 goes with higher potency. A word on the EC50: it is the concentration at which the effect is half-maximal. Lower therefore signals a more potent agent.

T2 sequence (Q15116 25-288 limits assumed): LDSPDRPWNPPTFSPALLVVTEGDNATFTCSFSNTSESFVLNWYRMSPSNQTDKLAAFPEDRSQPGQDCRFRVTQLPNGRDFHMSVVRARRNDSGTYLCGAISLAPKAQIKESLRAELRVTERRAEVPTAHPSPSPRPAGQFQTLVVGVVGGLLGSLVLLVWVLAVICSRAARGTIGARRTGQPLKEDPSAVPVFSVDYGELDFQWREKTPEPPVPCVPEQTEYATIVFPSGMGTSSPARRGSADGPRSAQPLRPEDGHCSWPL
T1 sequence (Q15116 25-170): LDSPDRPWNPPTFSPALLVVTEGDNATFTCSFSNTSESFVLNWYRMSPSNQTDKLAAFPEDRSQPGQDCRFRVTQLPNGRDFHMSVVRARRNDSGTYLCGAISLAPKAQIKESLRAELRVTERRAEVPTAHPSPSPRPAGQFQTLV
T3 sequence (Q15116 25-170): as above

B1: 10A10 (antibody, V domains shown)
VH: EVKLVESGGDLVKPGGSLKLSCAASGFTFNYYDISWVRQTPEKRLEWVATISGGGRYTYYLDNVQGRFTISRDNAKNILYLQMNSLRSDDTALYFCASPYEGAMDYWGQGTSVTVSS
VL: DIVMTQSHKFMSTSIGDGVNITCKASQDVGTAVAWYQQKPGQSPKLLNKWASTRHTGVPDRFTGSGSGTDFTLTINNVQSEDLADYFCQQYSTFPYTFGGGTNLELK
notes: Mouse monoclonal antibody purified from hybridoma supernatant by Protein A; also called 鼠源PD-1单克隆抗体10A10; PD-1杂交瘤抗体10A10
As for B1, the concentration for half-maximal inhibition (IC50) is 0.361 µg/mL in assay [1] and 0.0276 µg/mL with PD-1 on 293T-PD-1 cells [4]. In addition, the EC50 in assay [2] came to 0.00114 µg/mL; with PD-1 on 293T-PD-1 cells [3] it was 0.0314 µg/mL.

B2: 5H10 (antibody, V domains shown)
VH: EVQLVESGGGLVKPGGSLKLSCAASGFTFSDYGMHWVRQAPEKGLEWVAYISGDSNTIYYADTVKGRFTISRDNAKNTLFLQMTSLRSEDTAMYYCTKRGPYYGYTHYFDYWGQGTTLTVSS
VL: SIVMTQTPKFLLVSAGDRVTMTCKASQSVSNDVVWYQQKPGQSPKLLIYYASKRYTGVPDRFTGNGYGTDFTFTISTVQAEDLAVYFCQQDYSSPWTFGGGTKLEIK
notes: Mouse monoclonal antibody purified from hybridoma supernatant by Protein A; also called 鼠源PD-1单克隆抗体5H10; PD-1杂交瘤抗体5H10
B2: the results for the IC50 (in assay [1]; with PD-1 on 293T-PD-1 cells [4]) were 0.339 µg/mL and 0.0412 µg/mL, respectively. Also, the EC50 in assay [2] was found to be 0.00109 µg/mL; with PD-1 on 293T-PD-1 cells [3] it was 0.0643 µg/mL.

B3: 8D4 (antibody, V domains shown)
VH: EVQLQQSGTVLARPGASVKMSCKTSGYTFTNFWMHWVKQRPGQGLDWIGAIFPGNTDTTYNRKFKDKAKLTAVTSASTAYMELSSLTNEDSAVYYCTRNHYGLDYWGQGTSVTVSS
VL: DIVLTQSPASLAVSLGQRATISCRASESVSIHGTHLMHWYQQKPGQPPKLLIYIASNLGSGVPARFSGSGSETDFTLNIHPVEEEDAATYFCQQSIEDPWTFGGGTKLEIK
notes: Mouse monoclonal antibody purified from hybridoma supernatant by Protein A; also called 鼠源PD-1单克隆抗体8D4; PD-1杂交瘤抗体8D4
With B3, the concentration for half-maximal inhibition (IC50) in assay [1] amounted to 0.37 µg/mL; with PD-1 on 293T-PD-1 cells [4] it was 0.0296 µg/mL. Besides, the values for the concentration for a half-maximal effect (EC50) (in assay [2]; in the assay with PD-1 on 293T-PD-1 cells [3]) were 0.00261 µg/mL and 0.0443 µg/mL, respectively.

B4: 4B5 (antibody, V domains shown)
VH: EVILVESGGDLVKPGGSLKLSCAASGFTFSSYMMSWVRQTPEKRLEWVATISGGGANTYYLDSMKGRFTISRDNAKNILYLQMSSLRSEDTAFYYCARQSDRGFPYWGQGTLVTVSA
VL: DIQMTQSPASQSASLGESVTITCLASQPIGTWLAWYQQKPGTSPQLLIFAATTLTDGVPSRFSGSGSGTKFSFKISSLQAEDFVSYYCQQFSSIPYTFGGGTRLEIK
notes: Mouse monoclonal antibody purified from hybridoma supernatant by Protein A; also called 鼠源PD-1单克隆抗体4B5; PD-1杂交瘤抗体4B5
B4: the IC50 in assay [1] was 0.343 µg/mL; with PD-1 on 293T-PD-1 cells [4], 0.0355 µg/mL. For the same molecule, the half-maximal effective concentration (EC50) is 0.00175 µg/mL in assay [2] and 0.04 µg/mL with PD-1 on 293T-PD-1 cells [3].

B5: hu9H8-hIgG4 (antibody, V domains shown)
VH: EVQLLESGGGLVQPGGSLRLSCAASGFTFSDYYMYWVRQAPGKGLEWVSQISNGGGNTYYPDTVKGRFTISRDNSKNTLYLQMNSLRAEDTAVYYCSKSYYKYDGWYFDVWGQGTLVTVSS
VL: DIVMTQSPDSLAVSLGERATINCRASESVEYSRTSLIQWYQQKPGQPPKLLIYAASYVESGVPDRFSGSGSGTDFTLTISSLQAEDVAVYYCQQARKVPWTFGQGTKLEIK
notes: Humanised antibody built as IgG4 subtype, expressed in 293 cells; also called 9H8人源化抗体; 人源化抗体9H8
For the molecule B5, the half-maximal effective concentration (EC50) in assay [5] came out at 0.00532 µg/mL; in the assay with PD-1 on 293T-PD-1 cells [6], 0.285 µg/mL. This molecule yielded an IC50 in assay [7] of 0.332 µg/mL.

B6: hu8D4-hIgG4 (antibody, part only; not given: Light chain variable domain, constant regions, V domains shown, part only)
VH: QVQLVQSGAEVKKPGASVKVSCKASGYTFTNFWMHWVRQAPGQRLEWIGAIFPGNTDTTYNRKFKDRATLTADTSASTAYMELSSLRSEDTAVYYCTRNHYGLDYWGQGTLVTVSS
With B6, the concentration giving a half-maximal response (EC50) in assay [5] turned out to be 0.0489 µg/mL; with PD-1 on 293T-PD-1 cells [6], 0.311 µg/mL. In assay [7], this molecule gave a concentration for half-maximal inhibition (IC50) of 0.851 µg/mL.

B7: 9H8 (antibody, V domains shown)
VH: EVKLVESGGGLVQPGGSLKLSCATSGFTFSDYYMYWVRQTPEKRLEWVAQISNGGGNTYYPDTVKGRFTISRDNAKNTLYLQMSRLKSEDTAIYYCSKSYYKYDGWYFDVWGAGTTVTVSS
VL: DIVLTQSPASLAVSLGQRATISCRASESVEYSRTSLIQWYQLKPGQPPKLLIYAASYVESGVPDRFSGSGSGTEFSFNIHPVEEDDIAMYFCQQARKVPWTFGGGTNLEIK
notes: Mouse monoclonal antibody purified from hybridoma supernatant by Protein A; also called 鼠源PD-1单克隆抗体9H8; PD-1杂交瘤抗体9H8
With B7, the figures for the IC50 (in assay [1]; with PD-1 on 293T-PD-1 cells [4]) were 0.319 µg/mL and 0.00854 µg/mL, respectively. Also, the half-maximal effective concentration (EC50) in assay [2] was determined as 0.000511 µg/mL; with PD-1 on 293T-PD-1 cells [3], 0.0203 µg/mL.

B8: 5F7 (antibody, V domains shown)
VH: EVMLVESGGDLVKPGGSLKLSCAASGFTFSSYMMSWVRQTPEKRLEWVAAISGGGGDTYYPDSVKGRFTISRDNAKNTLYLQMSSLRSEDTALYYCARRVVYAMDCWGQGTSVTVSS
VL: DIQMTQSPASQSASLGESVTITCLASQSIGTWLVWYQQKPGKSPQLLISAATSLADGVPSRFSGSGSGTKFSFKISSLQAEDFVSYYCQQLYIIPWTFGGGTKLEIK
notes: Mouse monoclonal antibody purified from hybridoma supernatant by Protein A; also called 鼠源PD-1单克隆抗体5F7; PD-1杂交瘤抗体5F7
In the case of B8, the half-maximal inhibitory concentration (IC50) in assay [1] came out at 0.324 µg/mL; in the assay with PD-1 on 293T-PD-1 cells [4], 0.0181 µg/mL. For the same molecule, the EC50 amounted to 0.00123 µg/mL in assay [2] and 0.0176 µg/mL in the assay with PD-1 on 293T-PD-1 cells [3].

The values above are taken from patent publication CN114316047A (DONGDA BIOTECHNOLOGY SUZHOU CO LTD, dated 2022).
